Results on one molecule are retold here after publication doi:10.1101/2022.03.12.484092.

The target of this data set is SARS-CoV-2 nucleocapsid N-terminal domain (NTD) (SARS-CoV-2, UniProt P0DTC9 41-174). Briefly: fluorescence intensity titration.

Turning to UCUCUAAACG (ssRNA) [10-mer RNA], the binding result was “binds”.
